# Laboratory results reported in article PMC11683240.
# Columns and labels:
# [1] = target: Bordetella pertussis toxin (PT) holotoxin (Bordetella pertussis) (UniProt P04977); assay: FACS; conditions: natural protein
# [2] = target: Bordetella pertussis toxin (PT) holotoxin (Bordetella pertussis) (UniProt P04977); assay: FACS; conditions: natural protein; remark: listed apart in the source
# Chain of α1-antitrypsin (Prolastin, plasma-derived) (P01009 25-418): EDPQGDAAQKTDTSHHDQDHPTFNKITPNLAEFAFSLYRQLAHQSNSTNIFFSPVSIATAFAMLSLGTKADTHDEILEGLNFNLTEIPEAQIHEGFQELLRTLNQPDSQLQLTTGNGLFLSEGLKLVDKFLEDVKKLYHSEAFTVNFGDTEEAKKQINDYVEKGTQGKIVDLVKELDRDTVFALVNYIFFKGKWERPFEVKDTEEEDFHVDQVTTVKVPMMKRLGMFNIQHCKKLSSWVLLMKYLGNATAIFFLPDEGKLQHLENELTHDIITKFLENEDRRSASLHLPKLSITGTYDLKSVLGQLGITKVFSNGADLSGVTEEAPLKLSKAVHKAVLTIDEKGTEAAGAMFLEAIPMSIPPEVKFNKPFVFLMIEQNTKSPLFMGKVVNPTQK
substance,measurement,setting,value
"α1-antitrypsin (Prolastin, plasma-derived) (from UniProt P01009 25-418)",IC50,[1],1.73 µM
same,IC50,[2],0.796 µM
